# Data as given in the nanobody polyreactivity screen of Harvey et al. (2022).
# Experiment: yeast display, Sf9 membrane polyspecificity reagent, FACS + sequencing; frameworks hold sequencing errors
# Summary of the method: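 Nanobodies came from a synthetic yeast display library in Saccharomyces cerevisiae BJ5465, induced with galactose for 36–48 hours and stained for 1 hour at 4 °C with 10% biotinylated, detergent-solubilized Sf9 membrane reagent. Cells were enriched on streptavidin microbeads and then FACS-sorted, with low and high (top ~1%) gates set on anti-HA fluorescence for expression and streptavidin fluorescence for reagent binding. Each polyreactivity label reflects the gate a clone came from. Genes were amplified by colony PCR, sequenced by MiSeq 2 × 250 and filtered by CDR length.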
row,Sequence,polyreactivity (PSR sort gate)
1,QVQLVESGGGLVQAGGSHRLSCAASGRIFKIYAMGWYRQAPGKERELVAAISRGGRTYYADSVKGRFTISRDNAMYTFYLLLNSLTPEDTAVYYCNLYAPDTYGINGYWGQGTQVSVSS,high polyreactivity
2,QVQLVESGGGLVQAGGSHRLSCAASGRIFRSYAMGWYRQAPGKERELVAAISDRGGSTYYADSVKGRFTISRDNAKKTVYVQMNRLKAEDTAVYSCNAPRGGRNTVYYWGQGTQVTVSS,high polyreactivity
3,QVQLVESGGGLVQAGGSHRLSCAASGRIFTYNAMGWYRQAPGKERELVAVITSGGSTYYADSVKGRFTISRDNAKNTVYLQMNSLKPEDTAVYYCNAVYFRYRYNYWGQGTQVTVSS,high polyreactivity
4,QVQLVESGGGLVQAGGSHRLSCAASGRIFTYYAMGWYRQAPGKQREFVAAITYRGGRTYYADSVKGRFTISRDNAKNTVYLQLNSLNPEDTAVYYCNVAPYGYWPRYYPWRELDYWGQGTQVTVSS,high polyreactivity
5,QVQLVESGGGLVQAGGSHRLSCAASGRILYGYAMGWYRQAPGQERELVASITWSGGSTYADSVKGRFTISRDNAKNTVYLQMKSLKPEDTAVYYCATRRGPKWQWLTYGYWGLGTQVTVSS,low polyreactivity
6,QVQLVESGGGLVQAGGSHRLSCAASGRTFGYNAMGWYRQAPGKERELVAAISRSGGRTYYADSVKGRFTISRDNAKNTVYLHMNRLKPEDTAVYYCAAESYHRGYDYWGQGTQVTVSS,high polyreactivity
7,QVQLVESGGGLVQAGGSHRLSCAASGRTFRPYAMGWYRQAPGKERELVAAITGGTRKYYADSVKGRFTISRDNAKNSVYLQMNSLKPEVTAVYSCAKGDFFSKHDYRGQGTQVTVSS,low polyreactivity
8,QVQLVESGGGLVQAGGSHRLSCAASGRTFSTYSMGWYRQAPGKERELVAAISSGGGRTYYADSVKGRFTISRDIAKNTVYLQINSLKPEDTAVYDGAADRYFRSRRSYEYWGQGTQVTVSS,low polyreactivity
9,QVQLVESGGGLVQAGGSHRLSCAASGRTFVFYAMGWYRPAPGKERELVAAISRSGGSTYYADSVKGRFTISRDNAKNTVFLQMNSLKPEDTAVSYCNARYTGSGGYWGQGTQVTVSS,high polyreactivity
10,QVQLVESGGGLVQAGGSHRLSCAASGRTFYAYAMGWYRQAPGKERELVAANRYSGGRTYYADSVKGRFTISRDNAKNTVYLQMNSLKPEDTGVYYCAREWSRGSYVDYDYWGQGTQVTVSS,high polyreactivity
11,QVQLVESGGGLVQAGGSHRLSCAASGRTFYFYTMGWYRPAPGKESELVATIRWSAGSTYYADSVKGRFTISRDNAKNTVYLQMNSLKPEDTAVYYCNADPYVYSSWEYGYWGLGTQVTVSS,high polyreactivity
12,QVQLVESGGGLVQAGGSHRLSCAASGSIFYDNAMGWYRQAPGKERELVAVITVSGDSTYYADSVKGRFTISRDNAKNTVYLQMNSLKPEDTAVYYCNTDAISGSHFWRYITFGYLDDYWGQGTQVTVSS,low polyreactivity
13,QVQLVESGGGLVQAGGSHRLSCAASGSTFRVYAMGWYRQAPGKERELVATISWGGGRTYYADSVKGRFTISRDNAKNTVYLQMNSLKPEDTAVYYCAADQRWTTDQPTAGDYWGQGTQVTVSS,low polyreactivity
14,QVQLVESGGGLVQAGGSHRLSCAASGSTFTYNAMGWYRQAPGKERELVASISSGTTTYYADSVKGRFTISRDNAKNTVYLQMNSLIPEDTAVYDCAVDSWSRVQGWLAHNYDYWGQGTQVTVSS,low polyreactivity
15,QVQLVESGGGLVQAGGSHRLSCAASGSTFVPYTMGWYRQAPGKERELVAAISGSGGTDYADSVKGRFTISRDNAKNTVYLQMNSLKPEDTAVYYCATDGLDFWFIYDYWGQGTQVTVST,low polyreactivity
16,QVQLVESGGGLVQAGGSHRLSCAASGSTFVRNAMGWYRPAPAKERGLVAGISTSGGRTYYADSVKGRFTISRDNAKNTVYLQMNSLKPEDTAVYDCAVLAWRSIAYDKYDYWGQGTQVTVSS,high polyreactivity
17,QVQLVESGGGLVQAGGSHRLSCAASGSTLSVNAMGWYRQAPGKERELGAAIDFDGGDTYYADSVKGRFTLSRDNAKNTVYLQMNSLKPEDTAVYSCNAALRWKYDWVQGTQVTVSS,low polyreactivity
18,QVQLVESGGGLVQAGGSHRLSCAASGYIFGYNAMGWYRQAPGKEREFVAAIRFSGGSTYYADSVKGRFTISRDNAKNTVYLQMNSMKPEDTAVYYCAKRGYGHLIPIAYEYWGQGTQVTVSS,low polyreactivity
19,QVQLVESGGGLVQAGGSHRLSCASYGLIFESYVMGWDRQAPGKERELVAAIRSSGGSTYYADSVKGRFTISRDNAKNTVYLQMNCLNPEDTAVYYCAANYYYYLTISWWYAYDYWGQGTQVTVSS,low polyreactivity
20,QVQLVESGGGLVQAGGSHRLSCDASGYIFRRYAMGWYRQAPGKERELVAAISWRGGSTYYADSVKGRFTISRDNAKNTVYLQMNSLKPEDSAVYYCAKVVPGAGHLDEYWGQGTQVTVSS,high polyreactivity
21,QVQLVESGGGLVQAGGSHRLSFAASGSIFTRYAMGWYRPAHGKEREFVAGISWTGGSTYYADSVKGRFTISRDIAKNTVYLQMYRLKPEDTGVYYCAAGYWYSAFSGWWDYSDLYYWGQGTQVTVSS,high polyreactivity
22,QVQLVESGGGLVQAGGSHRLSSAASGSILADNAMGWYRQAPGKERELVAAISLRGGRTYYADSVKGGFTISRDNAKNTVYLQMNSLKPEDTAVYYCAAVGSFHIVDYWGEGTQVTVSS,high polyreactivity
